This is an account of results in US20210230263A1 (BIOATLA, published 2021).

In one experiment the target is T1, human IL19 (human, UniProt Q9UHD0 25-177).
T1 sequence (looked up): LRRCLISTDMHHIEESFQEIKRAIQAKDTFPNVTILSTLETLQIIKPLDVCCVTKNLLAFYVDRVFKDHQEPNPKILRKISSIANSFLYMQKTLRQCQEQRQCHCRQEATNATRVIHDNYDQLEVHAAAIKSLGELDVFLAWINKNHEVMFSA
The experiment in a line: ELISA on coated antigen (1 ug/ml), anti-hIgG-HRP, OD450.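 Note: specificity check of antibodies applied at 100 ng/ml to wells bearing human or mouse IL-22, related cytokines or an unrelated control antigen.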

The target of another experiment is T2, human IL26 (human, UniProt Q9NPH9 22-171, limits assumed).
T2 sequence (looked up): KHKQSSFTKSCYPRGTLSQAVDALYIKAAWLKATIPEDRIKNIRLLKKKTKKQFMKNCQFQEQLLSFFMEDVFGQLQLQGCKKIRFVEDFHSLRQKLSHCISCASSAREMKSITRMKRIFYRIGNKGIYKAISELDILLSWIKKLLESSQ
The description is as above.

Another experiment concerns the target T3, human IL20 (human, UniProt Q9NYY1 25-176).
T3 sequence (looked up): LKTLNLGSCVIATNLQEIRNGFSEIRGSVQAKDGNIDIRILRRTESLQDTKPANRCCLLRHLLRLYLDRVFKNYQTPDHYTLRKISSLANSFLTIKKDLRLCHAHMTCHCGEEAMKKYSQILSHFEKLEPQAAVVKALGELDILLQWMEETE
Described as above.

The next experiment addresses T4, human IL24 (human, UniProt Q13007 52-206, limits assumed).
T4 sequence (looked up): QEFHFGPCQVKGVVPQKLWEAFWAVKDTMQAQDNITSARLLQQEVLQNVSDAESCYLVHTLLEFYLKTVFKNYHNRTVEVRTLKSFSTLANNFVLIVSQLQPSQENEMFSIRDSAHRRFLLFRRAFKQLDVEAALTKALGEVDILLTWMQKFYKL
The description is as above.

A further experiment deals with T5, INF-γ (Homo sapiens (Human), UniProt P01579 24-161).
T5 sequence: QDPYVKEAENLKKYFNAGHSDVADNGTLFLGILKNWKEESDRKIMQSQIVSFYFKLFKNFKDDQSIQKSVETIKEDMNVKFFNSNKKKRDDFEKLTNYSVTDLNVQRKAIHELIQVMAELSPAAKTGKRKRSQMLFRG
The description is as above.

A further experiment addresses INF-λ1 (Homo sapiens (Human), UniProt Q8IU54 20-200). Described as above.
For experiment [1], the target named is IL-22 (CXCL1 assay in HT29 cells). The experiment in a line: cell-based or functional assay.
A further experiment deals with T6, human IL-22 (human, UniProt Q9GZX6 34-179).
T6 construct: also called hIL-22; hIL22
T6 sequence (looked up): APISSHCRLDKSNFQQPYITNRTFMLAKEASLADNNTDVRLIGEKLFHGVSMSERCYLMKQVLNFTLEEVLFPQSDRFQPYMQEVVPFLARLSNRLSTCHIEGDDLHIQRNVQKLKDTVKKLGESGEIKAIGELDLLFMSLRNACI
The experiment can be described thus: SPR (SierraSensors SPR-2), hIL-22 immobilized on chip, antibody injected, Langmuir 1:1 model.

The next experiment addresses T7, mouse IL-22 (mouse, UniProt Q9JJY9 34-179).
T7 construct: also called mIL-22; mIL22
T7 sequence (looked up): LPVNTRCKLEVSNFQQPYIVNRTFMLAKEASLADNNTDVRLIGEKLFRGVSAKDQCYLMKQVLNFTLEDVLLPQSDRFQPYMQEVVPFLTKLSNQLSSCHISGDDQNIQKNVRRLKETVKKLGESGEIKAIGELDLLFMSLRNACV
The experiment in a line: SPR (SierraSensors SPR-2), mIL-22 immobilized on chip, antibody injected, heterogeneous ligand model.

Sequence of INF-λ1 (Q8IU54 20-200 limits assumed): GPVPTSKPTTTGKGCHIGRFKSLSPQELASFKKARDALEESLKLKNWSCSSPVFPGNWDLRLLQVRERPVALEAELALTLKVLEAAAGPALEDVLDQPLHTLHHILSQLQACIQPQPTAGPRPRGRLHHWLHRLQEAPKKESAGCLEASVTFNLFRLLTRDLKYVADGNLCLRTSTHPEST
Method for INF-γ: (§1) Plates were coated with 100 μl antigens at a concentration of 1 μg/ml. The plates were exposed to the antibodies at a concentration of 100 ng/ml. The bound antibodies were detected with anti-hIgG-HRP by the ELISA assay.
Method for INF-λ1: as §1
Method for human IL-22: (§2) The affinity of the 10 antibodies of Table 1 was measured by Surface Plasma Resonance (SPR) using a capture assay on a SPR-2 instrument (SierraSensiors, Hamburg, Germany). The antigens hIL-22 and mIL-22 were immobilized on chips. The running buffer for the assay contained 10 mM HEPES with a pH of 7.4, 500 mM NaCl, and 0.05% TWEEN® 20. […] The off-rate was measured for 6 minutes. Binding constants were calculated using the curve fitting software Analyzer2 (Sierra Sensors). Sensorgrams were analyzed with the instrument specific software and with BIAevaluation 4.1 software. The binding data were analyzed using the Langmuir 1:1 model (human IL-22) or a model for a heterogeneous ligand (mouse IL-220).
Method for human IL19: as §1
Method for human IL20: as §1
Method for human IL24: as §1
Method for human IL26: as §1
Method for mouse IL-22: as §2

B1: CPE-LC-E049K (antibody, V domains shown)
VH: QVQLVQSGAEVKKPGASVKVSCKASGYIFTSYWIHWIRQPPGKGLEWIGRIYPGTGNTYYNEKFKGRVTISADKSISTAYLQWSSLKASDTAMYYCARSYDSSCAYWGQGTLVTVSS
VL: AIQLTQSPSSLSASVGDRVTITCSASSSVSYMHWYLQKPGQSPQLLIYKTSKLASGVPSRFSGSGSGTDFTFTISSLEAEDAATYYCQQWSSNPYITFGQGTKVEIKR
notes: One of the mutant antibodies of the CPE library made from hum10 (CDR positions substituted); built here as hum10 with E49K in the light chain, read from its name
Regarding B1, the binding result in the experiment with human IL19, in the experiment with human IL26, with human IL20, with human IL24, with INF-γ and in the experiment with INF-λ1 was “no binding (tested: 100 ng/ml)” each time. Moreover, in experiment [1], the “IC50 (parameter C of the log-logit fit y=(A-D)/(1+(x/C)^B)+D) of inhibition of IL-22-induced CXCL1 production in HT29 cells” value is 124 ng/ml. For the same molecule, the Kd amounted to 0.156 nM with human IL-22 and 40.2 nM in the experiment with mouse IL-22. In addition, the koff with human IL-22 turned out to be 5.93e-05 s⁻¹; with mouse IL-22, 0.00137 s⁻¹.

B2: CPS-14 (antibody, V domains shown)
VH: QVQLVQSGAEVKKPGASVKVSCKASGYIFTSYWIHWIRQPPGKGLEWIGRIYPGTGRTYYNRKFKGRVTISADKSISTAYLQWSSLKASDTAMYYCARSYDYSVAYWGQGTLVTVSS
VL: AIQLTQSPSSLSASVGDRVTITCSASSSVSYMHWYLQKPGQSPQLLIYETRKLASGVPSRFSGSGSGTDFTFTISSLEAEDAATYYCQQWSSNPYITFGQGTKVEIKR
notes: Mutant of humanized hum10, whole antibody expressed in CHO cells; also called LC-04 / HC-31
Turning to B2, the binding result in the experiment with human IL19, in the experiment with human IL26, with human IL20, in the experiment with human IL24, with INF-γ and in the experiment with INF-λ1 was “no binding (tested: 100 ng/ml)” in each case. Further, the “IC50 (parameter C of the log-logit fit y=(A-D)/(1+(x/C)^B)+D) of inhibition of IL-22-induced CXCL1 production in HT29 cells” value in experiment [1] turned out to be 44.2 ng/ml. The Kd with human IL-22 was 0.0314 nM; in the experiment with mouse IL-22, 4.8 nM. Further, the koff with human IL-22 was found to be 3.55e-05 s⁻¹; with mouse IL-22, 0.00123 s⁻¹.

B3: CPS-04 (antibody, V domains shown)
VH: QVQLVQSGAEVKKPGASVKVSCKASGYIFRSYWIHWIRQPPGKGLEWIGRIYPGTGNTYYNRKFKGRVTISADKSISTAYLQWSSLKASDTAMYYCARSYDSSVAYWGQGTLVTVSS
VL: AIQLTQSPSSLSASVGDRVTITCSASSSVSYMHWYLQKPGQSPQLLIYKTSKLLSGVPSRFSGSGSGTDFTFTISSLEAEDAATYYCQQWSSNPYITFGQGTKVEIKR
notes: Mutant of humanized hum10, whole antibody expressed in CHO cells; also called LC-07 / HC-09
On to B3, for which the binding result with human IL19, with human IL26, with human IL20, in the experiment with human IL24, with INF-γ and with INF-λ1 was “no binding (tested: 100 ng/ml)” in each case. Further, in experiment [1], the “IC50 (parameter C of the log-logit fit y=(A-D)/(1+(x/C)^B)+D) of inhibition of IL-22-induced CXCL1 production in HT29 cells” value worked out at 51 ng/ml. In addition, the Kd with human IL-22 came to 0.0292 nM; with mouse IL-22, 4.23 nM. Also, the koff came to 3.74e-05 s⁻¹ in the experiment with human IL-22 and 0.00118 s⁻¹ in the experiment with mouse IL-22.
